# Publication PMC5770381
# How the values were obtained:
# Test in all cases: purified protein
# [1] = tested on: CC1(C)S[C@@H]2[C@H](NC(=O)[C@H](N)c3ccc(O)cc3)C(=O)N2[C@H]1C(=O)O; conditions: Tris-HCl pH 7.4, 35 °C, 20-500 μM substrate
# [2] = tested on: CO/N=C(\C(=O)N[C@@H]1C(=O)N2C(C(=O)O)=C(COC(C)=O)CS[C@H]12)c1csc(N)n1; conditions: Tris-HCl pH 7.4, 35 °C, 10-100 μM substrate
# [3] = tested on: C[C@@H](O)[C@H]1C(=O)N2C(C(=O)O)=C(S[C@@H]3CN[C@H](C(=O)N(C)C)C3)[C@H](C)[C@H]12; conditions: Tris-HCl pH 7.4, 35 °C, 10-200 μM substrate
substance,measurement,setting,value
ElBla2 (Erythrobacter litoralis HTCC2594),Km,[1],39 ± 9 µM
same,kcat,[1],1.4 ± 0.1 s⁻¹
same,kcat/Km,[1],40000 M⁻¹ s⁻¹
same,Km,[2],13 ± 4 µM
same,kcat,[2],0.9 ± 0.1 s⁻¹
same,kcat/Km,[2],70000 M⁻¹ s⁻¹
same,Km,[3],19 ± 6 µM
same,kcat,[3],2.1 ± 0.2 s⁻¹
same,kcat/Km,[3],110000 M⁻¹ s⁻¹
